Test results from patent publication US20150329642A1 (Genmab, published 2015).

What was measured:
[1] = biological target: T1, human c-Met, membrane-bound on cells (human, UniProt P08581 25-1390); test: cell-based or functional assay
[2] = biological target: T1, human c-Met, membrane-bound on cells; test: flow cytometry on A431 cells
Protocol: (§1) The binding of anti-c-Met antibodies and monovalent forms thereof (also termed “UniBody molecules” herein, see Example 5) to A431 cells expressing membrane-bound c-Met (purchased at ATCC, CRL-1555) was tested using flow cytometry (FACS Canto II, BD Biosciences). […] Binding of anti-c-Met antibodies and UniBody molecules was detected using a Phycoerythrin-conjugated goat-anti-human IgG antibody (Jackson). IgG1-5D5 was used as positive control antibody, and HuMab-KLH was used as isotype control antibody. EC₅₀ values were determined by means of non-linear regression (sigmoidal dose-response with variable slope) using GraphPad Prism V4.03 software (GraphPad Software, San Diego, Calif., USA).
(§2) Also maximum binding levels were unchanged between IgG1's and UniBody molecules. For antibodies 005, 006, 008, 035, 045 and 058, on the other hand, a more than 2-fold […] as well as a decrease in maximum binding level was observed when comparing IgG1 with their UniBody counterpart. This was most likely due to the […] (Kd) of these antibodies (see Example 14).

[3] = biological target: T1, human c-Met, membrane-bound on cells; test: flow cytometry on A431 cells (PE goat anti-human IgG); second panel
Protocol: as §1, §2

[4] = biological target: T1, human c-Met, membrane-bound on cells; test: flow cytometry on A431 cells (PE goat anti-human IgG); top panel
Protocol: as §1, §2

[5] = biological target: T2, cMetECDHis (human, UniProt P08581 25-932, limits assumed, biotinylated in the cross-block ELISA of Example 17); test: BLI (Octet); antibody captured, cMetECDHis in solution
T2 construct: Expressed in HEK-293F cells; also called soluble cMetECDHis; biotinylated cMetECDHis
Protocol: Antibody binding to cMetECDHis was analyzed by means of Bio-Layer Interferometry (BLI) technology on the Octet System (Fortebio, Menlo Park, USA). Anti-human IgG coated biosensors (Fc-specific) were used to capture anti-c-Met antibodies according to the procedure recommended by the manufacturer. cMetECDHis derived from HEK293 cells was loaded on top of the immobilized anti-c-Met antibodies by placing the loaded biosensor into a well containing 10 μg/mL cMetECDHis diluted in 10 times diluted kinetics buffer (Fortebio). The difference in reflection of light (AA, nm) of the biosensor surface due to the binding of cMetECDHis was measured in real time during approximately 10 minutes and was used by the Octet software (V4.0, Fortebio) to calculate the association constant (kₐ [1/M×s]). Next, the loaded biosensor was placed into a well containing only kinetics buffer (10 times diluted in PBS) to determine the dissociation constant (kd [1/s]). Kinetics analysis was performed to determine the affinity (KD [M]) using model 1:1 (langmuir). As a positive control, 0.2 μg/mL 5D5 IgG1 produced in HEK293 cells, was used.

[6] = biological target: T3, recombinant human c-Met extracellular domain (R&D systems) (human, UniProt P08581 25-932); test: competition ELISA, residual Europium-HGF signal at 615 nm at the lower plateau of the fit; sheet prints no competing mAb ~66000, no HGF-Europium ~600; lower panel
T3 construct: extracellular domain; Bought reagent; also called coated extracellular domain of c-Met; recombinant c-Met
Protocol: (§3) ELISA wells were coated overnight at 4° C. with 0.5 μg/mL recombinant human c-Met extracellular domain (R&D systems, Minneapolis, USA) diluted in PBS. Next, the ELISA wells were washed with PBST (PBS supplemented with 0.05% Tween-20 [Sigma-Aldrich, Zwijndrecht, The Netherlands]) and blocked for one hour at room temperature (RT) with PBST supplemented with 2% (v/v) chicken serum (Gibco, Paisley, Scotland). […] Mean fluorescence intensity at 615 nm was measured using the EnVision 2101 Multilabel reader (PerkinElmer) applying the following settings: Lance/Delfia dual mirror, emission filter 615, excitation filter 340 nm, delay time 400 μs, window 400 μs, 100 flashes, 2000 μs per cycle and bidirectional row-by-row reading. To determine IC₅₀ values, the binding curves were analyzed with non-linear regression (sigmoidal dose-response with variable slope, top-values constrained to a shared value for all data-sets) using GraphPad Prism V4.03 software (GraphPad Software, San Diego, Calif., USA).
(§4) FIG. 5 depicts representative examples of HGF binding inhibition curves of anti-c-Met antibodies for binding to the extracellular domain of recombinant human c-Met. 5D5 was used as positive control antibody. All anti-c-Met antibodies in the experiment shown were able to compete with Europium^{3±}-conjugated HGF for binding to recombinant c-Met. […] Without adding Europium³⁺-conjugated HGF, roughly ˜600 relative fluorescent units (RFU) were detected, indicating the signal when maximal inhibition is accomplished. When binding of Europium³⁺-conjugated HGF was not inhibited, approximately ˜66,000 RFU were detected.

[7] = biological target: T3, recombinant human c-Met extracellular …; test: competition ELISA on coated recombinant c-Met extracellular domain; blocked ligand Europium-conjugated HGF; column headed EC50 on the sheet, called IC50 in paragraph 270; lower panel
Protocol: as §3, §4

Binder	fold change of EC50, UniBody molecule against IgG1 of the identical clone [2] [fold]	EC50 [3] [nM]	EC50 [4] [nM]	other results
Uni-1016-022-TE (other, also called UniBody molecule of antibody 022) VH: QVQLVESGGGVVQPGRSLRLSCAASGFTFSSYAMHWVRQAPGKGLEWVAVISYDGSNKYYADSVKGRFTISRDNSKNTLYLQMNSLRAEDTAVYYCARELLWFGELWGYFDLWGRGTLVTVSS VL: DIQMTQSPSSVSASVGDRVTITCRASQGISSWLAWYQHKPGKAPKLLIYAASSLQSGVPSRFSGSGSGTDFTLTISSLQPEDFATYYCQEASSFTWTFGQGTKVEIK	< 2	1.66		percentage inhibition of viable KP4 cells (Alamarblue) [1]: 57%
Uni-1016-006 (other, also called UniBody molecule of antibody 006) VH: QVQLVQSGAEVKKPGSSVKVSCKASGGTFSSFGIGWVRQAPGQGLEWMGRIFPILGTANYAQMFQGRVTITADKSTSTAYMELTSLRSEDTAVYYCARDVGYDSADAFDIWGQGTMVTVSS VL: DIQMTQSPSSLSASVGDRVTITCRASQGISSWLAWYQQKPEKAPKSLIYAASSLQSGVPSRFSGSGSGTDFTLTISSLQPEDFATYYCQQYNSYPPTFGQGTKVEIK	> 2	13.9	0.323	
anti-c-Met HuMab 096 (IgG1) (antibody, V domains shown, also called TH1016-096; PC1016-096) VH: EVQLVQSGAEVKKPGESLKISCKGSGYSFTSYWIGWVRQMPGKGLEWMGIIYPGDSDTRYSPSFQGQVTISADKSISTAYLQWSSLKASDTAMYYCARQEITGDFDYWGQGTLVTVSS VL: AIQLTQSPSSLSASVGDRVTITCRASQGISSALAWYQQKPGKAPNLLIYAASSLESGVPSRFSGSGSGTDFTLTISSLQPEDFATYYCQQFNSYPLTFGGGTKVEIK				Kd [5]: 2.55 nM; koff [5]: 0.0005 s⁻¹; kon [5]: 196000 M⁻¹ s⁻¹; Bottom [6]: 24800 RFU; IC50 [7]: 0.0152 µg/mL
Uni-1016-058-TE (other, also called UniBody molecule of antibody 058) VH: EVQLVESGGGLVKPGGSLKLSCAASGFTFSDYYMYWVRQTPEKRLEWVATISDDGSYTYYPDSVKGRFTISRDNAKNNLYLQMSSLKSEDTAMYYCAREGLYYYGSGSYYNQDYWGQGTLVTVSS VL: AIQLTQSPSSLSASVGDRVTITCRASQGLSSALAWYRQKPGKAPKLLIYDASSLESGVPSRFSGSGSGTDFTLTISSLQPEDFATYYCQQFTSYPQITFGQGTRLEIK	> 2		0.67	
IgG4-058 (antibody, V domains shown, IgG4 format of clone 058; also called IgG4-1016-058) VH: EVQLVESGGGLVKPGGSLKLSCAASGFTFSDYYMYWVRQTPEKRLEWVATISDDGSYTYYPDSVKGRFTISRDNAKNNLYLQMSSLKSEDTAMYYCAREGLYYYGSGSYYNQDYWGQGTLVTVSS VL: AIQLTQSPSSLSASVGDRVTITCRASQGLSSALAWYRQKPGKAPKLLIYDASSLESGVPSRFSGSGSGTDFTLTISSLQPEDFATYYCQQFTSYPQITFGQGTRLEIK			0.276	
